Two molecules from publication PMC13108567 (2026) can be followed below.

Assay [1] has as its target PD-1 biotinylated dimer (human, UniProt Q15116 25-288, biotin). Kind of assay: BLI. In general terms: Biolayer interferometry detects binding as a change in optical thickness at a sensor tip.
Assay [2] has as its target human programmed cell death protein 1 on PD-1 hi transgenic Jurkat cells (human, UniProt Q15116 25-288). Kind of assay: FACS. For orientation: A flow cytometer gives signals particle by particle.

PD-1 biotinylated dimer, sequence (Q15116 25-170): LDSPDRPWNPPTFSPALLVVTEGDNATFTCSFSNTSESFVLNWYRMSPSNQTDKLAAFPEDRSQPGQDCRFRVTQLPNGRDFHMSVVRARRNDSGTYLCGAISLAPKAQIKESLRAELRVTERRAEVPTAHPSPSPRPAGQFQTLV
human programmed cell death protein 1 on PD-1 hi transgenic Jurkat cells, sequence (Q15116 25-288): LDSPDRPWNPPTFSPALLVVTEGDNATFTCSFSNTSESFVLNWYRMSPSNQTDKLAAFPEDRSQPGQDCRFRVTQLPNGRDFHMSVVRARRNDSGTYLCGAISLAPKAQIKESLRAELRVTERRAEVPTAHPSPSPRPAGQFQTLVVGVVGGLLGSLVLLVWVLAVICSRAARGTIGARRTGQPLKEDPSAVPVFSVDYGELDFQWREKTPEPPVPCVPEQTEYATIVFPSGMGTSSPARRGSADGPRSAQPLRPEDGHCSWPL

B1: Fab of anti-PD-1 clone 135c139d6 (Fab, V domains shown)
VH: EVQLVQSGAEVKKPGESLKISCKGSGYSFTNFYIHWVRQAPGQRLEWMGSIYPNYGDTAYNQKFKDRFVFSLDTSVSTAYLQISSLKAEDTAVYYCARGYSYAMDYWGQGTTVTVSS
VL: DIQMTQSPSSVSASVGDRVTITCSASQGISGDLNWYQQKPGKAPKLLIYHTSSLHSGVPSRFSGSGSGTDFTLTISSLQPEDFATYYCQYYSKDLLTFGGGTKLEIK
For orientation: Kd means the free concentration of one partner at which half of the binding sites on the other are occupied at equilibrium, for simple one-to-one binding. In general, EC50 refers to the concentration giving half of the maximal effect. B1: the affinity in assay [1], expressed as Kd, was 16 nM. For the same molecule, the EC50 in assay [2] came to 42 nM.

B2: scFv-His of anti-PD-1 clone 135c139d6 (scFv, V domains shown)
VH: EVQLVQSGAEVKKPGESLKISCKGSGYSFTNFYIHWVRQAPGQRLEWMGSIYPNYGDTAYNQKFKDRFVFSLDTSVSTAYLQISSLKAEDTAVYYCARGYSYAMDYWGQGTTVTVSS
VL: DIQMTQSPSSVSASVGDRVTITCSASQGISGDLNWYQQKPGKAPKLLIYHTSSLHSGVPSRFSGSGSGTDFTLTISSLQPEDFATYYCQYYSKDLLTFGGGTKLEIK
Molecule B2 displayed a Kd in assay [1] of 10 nM. This molecule also came in with an EC50 in assay [2] of 162 nM.
